Experimental data published in patent publication US20120058906A1 (published 2012).
Values belong to the binder of their own block, whether it stands above or below them.

Legend:
[1] = target: T1, Recombinant Human DLL4 (R&D Systems Cat#1506-D4/CF) (human, UniProt Q9NR61 27-524); experiment: ECL (MSD Multi-Spot) binding, antigen spotted on plate; Fab 500 nM;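 note: blank spot per well as comparator with Hit at signal to blank ratio of 4 or more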
T1 construct: Bought recombinant protein; also called delta-like protein 4

[2] = target: T2, rHuman IGF-1 sR, CF (R&D Systems Cat#391-GR) (human, UniProt P08069 31-932); experiment: as above
T2 construct: Bought soluble receptor; also called insulin-like growth factor-1 soluble receptor; IGF-R1

[3] = target: T3, rHuman ErbB2/Fc Chimera, CF (R&D Systems Cat#1129-ER) (human, UniProt P04626 23-652); experiment: as above
T3 construct: Bought Fc chimera; also called human epidermal growth factor 2 receptor; HER2/neu; Fc part of the bought chimera not given

[4] = target: T4, rHuman EGF R/Fc Chimera, CF (R&D Systems Cat#344-ER) (human, UniProt P00533 25-645); experiment: as above
T4 construct: Bought Fc chimera; also called epidermal growth factor receptor; Fc part of the bought chimera not given

[5] = target: T5, rHuman HGF R/c-MET/Fc Chimera, CF (R&D Systems Cat#358-MT/CF) (human, UniProt P08581 25-932); experiment: as above
T5 construct: Bought Fc chimera; also called HGF R/Fc; hepatocyte growth factor receptor; Fc part of the bought chimera not given

[6] = target: T1, Recombinant Human DLL4 (R&D Systems …); experiment: ECL (MSD Multi-Spot) binding, antigen spotted on plate; Fab 50 nM;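 note: blank spot per well as comparator with Hit at signal to blank ratio of 4 or more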
[7] = target: T2, rHuman IGF-1 sR, CF (R&D Systems …); experiment: as above
[8] = target: T3, rHuman ErbB2/Fc Chimera, CF (R&D …); experiment: as above
[9] = target: T4, rHuman EGF R/Fc Chimera, CF (R&D …); experiment: as above
[10] = target: T5, rHuman HGF R/c-MET/Fc Chimera, CF (R&D …); experiment: as above
[11] = target: T1, Recombinant Human DLL4 (R&D Systems …); experiment: ECL (MSD Multi-Spot) binding, antigen spotted on plate; Fab 5 nM;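 note: blank spot per well as comparator with Hit at signal to blank ratio of 4 or more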
[12] = target: T2, rHuman IGF-1 sR, CF (R&D Systems …); experiment: as above
[13] = target: T3, rHuman ErbB2/Fc Chimera, CF (R&D …); experiment: as above
[14] = target: T4, rHuman EGF R/Fc Chimera, CF (R&D …); experiment: as above
[15] = target: T5, rHuman HGF R/c-MET/Fc Chimera, CF (R&D …); experiment: as above
[16] = target: T6, Recombinant Human DLL4 (delta-like protein 4) (human, UniProt Q9NR61 27-524); experiment: SPR, Fab on recombinant human DLL4; standard deviation in parentheses
T6 construct: Bought (R&D Systems Cat#1506-D4/CF); also called rHuman DLL4

[17] = target: T6, Recombinant Human DLL4 (delta-like …); experiment: SPR, Fab on recombinant human DLL4

ECL signal [1]: 29900
ECL signal [2]: 1870
ECL signal [3]: 2620
ECL signal [4]: 2510
ECL signal [5]: 2040
ECL signal [6]: 94200
ECL signal [7]: 1230
ECL signal [8]: 2110
ECL signal [9]: 2040
ECL signal [10]: 1280
ECL signal [11]: 150000
ECL signal [12]: 917
ECL signal [13]: 1380
ECL signal [14]: 1160
ECL signal [15]: 1020
B1: Fab VH1-46_IGHD6-6*01_IGHJ1*01_S102A_S103P_S104F_H111F & L6_IGKJ1*01 (Fab, V domains shown)
VH: QVQLVQSGAEVKKPGASVKVSCKASGYTFTSYYMHWVRQAPGQGLEWMGIINPSGGSTSYAQKFQGRVTMTRDTSTSTVYMELSSLRSEDTAVYYCAREEYAPFSAEYFQFWGQGTLVTVSS
VL: not shown
notes: Fab made in E. coli; The heavy chain also carries the CH1 with Flag and His tags of Plasmid A, and the light chain the kappa constant region of Plasmid C

Kd [16]: 355 nM
kon [16]: 64500 M⁻¹ s⁻¹
koff [17]: 0.023 s⁻¹
B2: Fab VH5-51_IGHD5-18*01>3_IGHJ4*01_G100K_G104T & V3-4_IGLJ1*01 (Fab, V domains shown)
VH: EVQLVQSGAEVKKPGESLKISCKGSGYSFTSYWIGWVRQMPGKGLEWMGIIYPGDSDTRYSPSFQGQVTISADKSISTAYLQWSSLKASDTAMYYCARRKYSYTYDYFDYWGQGTLVTVSS
VL: QTVVTQEPSFSVSPGGTVTLTCGLSSGSVSTSYYPSWYQQTPGQAPRTLIYSTNTRSSGVPDRFSGSILGNKAALTITGAQADDESDYYCVLYMGSGISYVFGTGTKVTVL
notes: Modified anti-DLL4 Fab; lambda Plasmid E)
